In patent US20110177071A1 (PERSEID THERAPEUTICS, published 2011):

T1: human CD80-murine Ig fusion protein (human)
T1 construct: Bought (Ancell #510-820); also called hCD80-mIg; human CD80-murine IgG
T1 chain: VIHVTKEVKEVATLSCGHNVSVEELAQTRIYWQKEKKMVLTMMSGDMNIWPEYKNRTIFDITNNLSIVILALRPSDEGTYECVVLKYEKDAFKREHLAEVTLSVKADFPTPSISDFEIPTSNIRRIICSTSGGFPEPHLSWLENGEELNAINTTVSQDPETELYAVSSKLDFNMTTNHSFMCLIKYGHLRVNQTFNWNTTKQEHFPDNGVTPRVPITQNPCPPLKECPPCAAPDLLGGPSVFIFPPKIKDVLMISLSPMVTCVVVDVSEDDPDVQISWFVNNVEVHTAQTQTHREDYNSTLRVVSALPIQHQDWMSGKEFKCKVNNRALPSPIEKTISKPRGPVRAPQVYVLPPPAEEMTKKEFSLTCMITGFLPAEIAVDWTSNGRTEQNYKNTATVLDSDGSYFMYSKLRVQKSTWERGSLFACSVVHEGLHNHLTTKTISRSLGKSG

T2: monomeric hCD86 ECD (papain-digested hCD86-mIg) (human, UniProt P42081 24-243)
T2 construct: also called monomeric hCD86-mIg ligand; monomeric CD86 ECD
T2 chain: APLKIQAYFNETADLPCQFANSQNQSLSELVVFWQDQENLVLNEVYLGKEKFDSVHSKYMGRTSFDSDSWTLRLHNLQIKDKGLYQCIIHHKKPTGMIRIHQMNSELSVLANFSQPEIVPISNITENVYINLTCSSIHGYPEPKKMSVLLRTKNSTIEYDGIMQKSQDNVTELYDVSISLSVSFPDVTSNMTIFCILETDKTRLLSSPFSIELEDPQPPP

T3: human CD86-murine Ig fusion protein (human)
T3 construct: Bought (Ancell #509-820); also called hCD86-mIg
T3 chain: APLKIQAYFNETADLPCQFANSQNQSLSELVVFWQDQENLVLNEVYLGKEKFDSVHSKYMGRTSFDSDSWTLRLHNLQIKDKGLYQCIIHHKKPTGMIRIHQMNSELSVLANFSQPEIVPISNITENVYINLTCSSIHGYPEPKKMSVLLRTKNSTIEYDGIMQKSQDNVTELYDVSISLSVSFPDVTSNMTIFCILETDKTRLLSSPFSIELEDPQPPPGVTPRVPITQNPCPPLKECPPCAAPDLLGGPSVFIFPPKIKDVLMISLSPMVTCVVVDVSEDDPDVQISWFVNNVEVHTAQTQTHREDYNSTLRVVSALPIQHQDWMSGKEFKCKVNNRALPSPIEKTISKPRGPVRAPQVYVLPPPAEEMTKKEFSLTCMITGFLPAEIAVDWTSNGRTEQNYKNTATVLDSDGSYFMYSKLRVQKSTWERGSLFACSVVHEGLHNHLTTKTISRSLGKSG

T4: full-length human CD86 on HEK293 cells (human, UniProt P42081 24-329)
T4 sequence: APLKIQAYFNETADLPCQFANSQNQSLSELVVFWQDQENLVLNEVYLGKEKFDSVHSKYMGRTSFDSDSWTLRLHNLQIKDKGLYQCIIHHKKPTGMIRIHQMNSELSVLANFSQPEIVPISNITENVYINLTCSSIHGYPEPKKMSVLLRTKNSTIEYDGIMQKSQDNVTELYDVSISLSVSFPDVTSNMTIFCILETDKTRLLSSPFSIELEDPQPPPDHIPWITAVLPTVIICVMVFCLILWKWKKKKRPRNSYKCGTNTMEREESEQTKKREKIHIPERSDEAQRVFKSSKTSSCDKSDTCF


Columns and labels:
[1] = target: T1, human CD80-murine Ig fusion protein; assay: SPR Biacore, hCD80-mIg captured
[2] = target: T2, monomeric hCD86 ECD (papain-digested …); assay: SPR Biacore, fusion protein captured, monomeric hCD86 ECD in flow
Description: Regeneration between cycles was performed by 3 min incubation with 10 mM glycine buffer (pH 1.7) at 30 μl/min.
For kinetic analysis, data from monomeric binding assays were selected as described above except that association data selection began and ended 5 s from the injection start and stop times, and dissociation data selection started 5 s after the injection stop time, and typically included 1-60 s of the dissociation period. Such data were also analyzed for steady state equilibrium affinities using the BIAevaluation software. Steady state binding levels for each concentration (Responseeq (“Req”) values) were averaged over 5-20 s range near the end of the sample injection using the BIAevaluation “General fit: average” function.

[3] = target: T3, human CD86-murine Ig fusion protein; assay: SPR Biacore, hCD86-mIg captured
[4] = target: T4, full-length human CD86 on HEK293 cells; assay: cell-based or functional assay

Row | Binder | Binding Avidity (Relative to Orencia) [1] | Kd [1] | Binding Affinity (Relative to LEA29Y-Ig) [2] | Kd [2] | Binding Avidity (Relative to Orencia) [3] | Kd [3] | Mean IC50 (nM), CD4+ T cell proliferation [4]
1 | D3-12-IgG2 (Fc fusion) MHVAQPAVVLASSRGIASFVCEYESPGKANEIRVTVLRQAGSQVTEVCAMTYMKGDELTFLDDPSCTGTFSGNQVNLTIQGLRAADTGLYICKVELMYPPPYYLGIGNGTQIYVIDPEPCPDSDERKCCVECPPCPAPPVAGPSVFLFPPKPKDTLMISRTPEVTCVVVDVSHEDPEVQFNWYVDGVEVHNAKTKPREEQFNSTFRVVSVLTVVHQDWLNGKEYKCKVSNKGLPAPIEKTISKTKGQPREPQVYTLPPSREEMTKNQVSLTCLVKGFYPSDIAVEWESNGQPENNYKTTPPMLDSDGSFFLYSKLTVDKSRWQQGNVFSCSVMHEALHNHYTQKSLSLSPG | > 2 fold | < 0.439 nM | > 5 fold | < 336 nM | > 40 fold | < 0.131 nM | 0.04 nM
2 | D3-27-IgG2 (Fc fusion) MHVAQPAVVLASSRGIASFVCEYESPGKANEVRVTVLRQADSQVTEVCAMTYMKGNELTFLDDPSCTGTFSGNQVNLTIQGLRAMDTGLYICKVELMYPPPYYLGIGNGTQIYVIDPEPCPDSDERKCCVECPPCPAPPVAGPSVFLFPPKPKDTLMISRTPEVTCVVVDVSHEDPEVQFNWYVDGVEVHNAKTKPREEQFNSTFRVVSVLTVVHQDWLNGKEYKCKVSNKGLPAPIEKTISKTKGQPREPQVYTLPPSREEMTKNQVSLTCLVKGFYPSDIAVEWESNGQPENNYKTTPPMLDSDGSFFLYSKLTVDKSRWQQGNVFSCSVMHEALHNHYTQKSLSLSPG | – | 0.439 to 1.75 nM | – | 336 to 840 nM | – | 0.131 to 0.262 nM | 0.04 nM
3 | D3-20-IgG2 (Fc fusion) MHVAQPAVVLASSRGIASFVCEYESPGKANEIRVTVLRQADSQVTEVCAMTYMKGNELTFLDDPSCTGTFSGNQVNLTIQGLRAMDTGLYICKVELMYPPPYYLGIGNGTQIYVIDPEPCPDSDERKCCVECPPCPAPPVAGPSVFLFPPKPKDTLMISRTPEVTCVVVDVSHEDPEVQFNWYVDGVEVHNAKTKPREEQFNSTFRVVSVLTVVHQDWLNGKEYKCKVSNKGLPAPIEKTISKTKGQPREPQVYTLPPSREEMTKNQVSLTCLVKGFYPSDIAVEWESNGQPENNYKTTPPMLDSDGSFFLYSKLTVDKSRWQQGNVFSCSVMHEALHNHYTQKSLSLSPG | – | 0.439 to 1.75 nM | – | 336 to 840 nM | – | 0.131 to 0.262 nM | 0.04 nM
4 | D3-29-IgG2 (Fc fusion) MHVAQPAVVLASSRGIASFVCEYASPGKANEIRVTVLRQADSQVTEVCAMTYMKGDELTFLDDPSCTGTFSGNQVNLTIQGLRAMDTGLYICKVELMYPPPYYLGIGNGTQIYVIDPEPCPDSDERKCCVECPPCPAPPVAGPSVFLFPPKPKDTLMISRTPEVTCVVVDVSHEDPEVQFNWYVDGVEVHNAKTKPREEQFNSTFRVVSVLTVVHQDWLNGKEYKCKVSNKGLPAPIEKTISKTKGQPREPQVYTLPPSREEMTKNQVSLTCLVKGFYPSDIAVEWESNGQPENNYKTTPPMLDSDGSFFLYSKLTVDKSRWQQGNVFSCSVMHEALHNHYTQKSLSLSPG | – | 0.439 to 1.75 nM | > 5 fold | < 336 nM | > 40 fold | < 0.131 nM | 0.04 nM

The next lines start with the values.

Row | Binding Avidity (Relative to Orencia) [1] | Kd [1] | Binding Affinity (Relative to LEA29Y-Ig) [2] | Kd [2] | Binding Avidity (Relative to Orencia) [3] | Kd [3] | Mean IC50 (nM), CD4+ T cell proliferation [4] | Binder
5 | > 2 fold | < 0.439 nM | > 5 fold | < 336 nM | > 40 fold | < 0.131 nM | 0.02 nM | D3-53-IgG2 (Fc fusion) MHVAQPAVVLASSRGIASFVCEYESPGKANEIRVTVLRQAGSQVTEVCAMTYMKGDELTFLDDPSCTGTFSGNQVNLTIQGLRAADTGLYICKVELMYPPPYYEGIGNGTQIYVIDPEPCPDSDERKCCVECPPCPAPPVAGPSVFLFPPKPKDTLMISRTPEVTCVVVDVSHEDPEVQFNWYVDGVEVHNAKTKPREEQFNSTFRVVSVLTVVHQDWLNGKEYKCKVSNKGLPAPIEKTISKTKGQPREPQVYTLPPSREEMTKNQVSLTCLVKGFYPSDIAVEWESNGQPENNYKTTPPMLDSDGSFFLYSKLTVDKSRWQQGNVFSCSVMHEALHNHYTQKSLSLSPG
6 | > 2 fold | < 0.439 nM | > 5 fold | < 336 nM | > 40 fold | < 0.131 nM | 0.03 nM | D3-31-IgG2 (Fc fusion) MHVAQPAVVLASSRGIASFVCEYESPGKANEIRVTVLRQADSQVTEVCAMTYMKEDELTFLDDPSCTGTFSGNQVNLTIQGLRAADTGLYICKVELMYPPPYYLGIGNGTQIYVIDPEPCPDSDERKCCVECPPCPAPPVAGPSVFLFPPKPKDTLMISRTPEVTCVVVDVSHEDPEVQFNWYVDGVEVHNAKTKPREEQFNSTFRVVSVLTVVHQDWLNGKEYKCKVSNKGLPAPIEKTISKTKGQPREPQVYTLPPSREEMTKNQVSLTCLVKGFYPSDIAVEWESNGQPENNYKTTPPMLDSDGSFFLYSKLTVDKSRWQQGNVFSCSVMHEALHNHYTQKSLSLSPG
7 | – | 0.439 to 1.75 nM | > 5 fold | < 336 nM | > 40 fold | < 0.131 nM | 0.04 nM | D3-IgG2 (Fc fusion, also called clone D3) MHVAQPAVVLASSRGIASFVCEYESPGKANEIRVTVLRQAGSQVTEVCAMTYMKGDELTFLDDPSCTGTFSGNQVNLTIQGLRAADTGLYICKVELMYPPPYYLGFGNGTQIYVIDPEPCPDSDERKCCVECPPCPAPPVAGPSVFLFPPKPKDTLMISRTPEVTCVVVDVSHEDPEVQFNWYVDGVEVHNAKTKPREEQFNSTFRVVSVLTVVHQDWLNGKEYKCKVSNKGLPAPIEKTISKTKGQPREPQVYTLPPSREEMTKNQVSLTCLVKGFYPSDIAVEWESNGQPENNYKTTPPMLDSDGSFFLYSKLTVDKSRWQQGNVFSCSVMHEALHNHYTQKSLSLSPG
